Residue numbers refer to the chain shown, from its start.
T1: CD70 ECD (Homo sapiens, UniProt P32970)
T1 sequence (P32970 39-193 limits assumed): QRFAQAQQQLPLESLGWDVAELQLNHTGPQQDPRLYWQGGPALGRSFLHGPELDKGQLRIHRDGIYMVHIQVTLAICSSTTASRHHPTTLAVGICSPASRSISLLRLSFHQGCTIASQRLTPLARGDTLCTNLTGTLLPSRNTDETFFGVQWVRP

T2: mouse CD70 extra-cellular domain (ECD) (Mus musculus, UniProt O55237)
T2 construct: human, rat, or mouse CD70 extra-cellular domain (ECD) linked to His tag; His tag; purchased ACRO systems
T2 sequence (O55237 45-195): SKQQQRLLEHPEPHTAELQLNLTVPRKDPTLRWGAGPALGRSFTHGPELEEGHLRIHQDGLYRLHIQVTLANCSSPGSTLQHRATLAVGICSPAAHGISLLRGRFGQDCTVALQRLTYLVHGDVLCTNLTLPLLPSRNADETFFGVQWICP

T3: rat CD70 extra-cellular domain (ECD) (Rattus norvegicus, UniProt M0R613)
T3 construct: human, rat, or mouse CD70 extra-cellular domain (ECD) linked to His tag; His tag; purchased ACRO systems
T3 sequence (M0R613 1-194): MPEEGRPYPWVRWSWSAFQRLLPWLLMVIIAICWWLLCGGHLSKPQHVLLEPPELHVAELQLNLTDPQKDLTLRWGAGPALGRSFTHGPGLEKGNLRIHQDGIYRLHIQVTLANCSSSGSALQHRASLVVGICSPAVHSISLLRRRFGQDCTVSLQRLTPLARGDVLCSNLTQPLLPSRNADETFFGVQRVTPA

T4: human CD70 extra-cellular domain (ECD) (Homo sapiens, UniProt P32970)
T4 construct: human, rat, or mouse CD70 extra-cellular domain (ECD) linked to His tag; His tag; purchased ACRO systems
T4 sequence (P32970 39-193 limits assumed): T1 sequence (P32970 39-193 limits assumed)

B1: 2A4P0L1: new VH/VL combination derived from the VH of 2A4 and the VL of 2D2 (antibody, V domains shown)
VH: QVQLQESGPGLVKPSETLSLTCTVSGGSVSSDYYYWSWIRQPPGKGLEWLGYIYYSGSTNYNPSLKSRVTISVDTSKNQFSLKLRSVTTADTAVYYCARGDGDYGGNVFPYWGQGTLVTVSS
VL: EIVLTQSPATLSLSPGERATLSCRASQSVSSYLAWYQQKPGQAPRLLIFDASNRATGIPARFSGSGSGTDFTLTISSLEPEDFAVYYCQQRLKFPLTFGGGTKVEIK
B2: 69A7: parent anti-CD70 antibody (U.S. Pat. No. 8,124,738B2), VH/VL SEQ ID NOs: 1 and 2 (antibody, V domains shown)
VH: B1 VH with V108C, P110D
VL: B1 VL with L92S, K93N, F94W
modifications: Synthetic 69A7 VH amino acid sequence; Synthetic 69A7 VL amino acid sequence
B3: 2A4: anti-CD70 antibody clone, VH SEQ 3 and VL SEQ 4; scFv and full human IgG1/kappa (antibody, V domains shown)
VH: B1 VH
VL: B1 VL with L92S, K93N, F94W
B4: Vorsetuzumab (antibody, V domains shown)
VH: QVQLVQSGAEVKKPGASVKVSCKASGYTFTNYGMNWVRQAPGQGLKWMGWINTYTGEPTYADAFKGRVTMTRDTSISTAYMELSRLRSDDTAVYYCARDYGDYGMDYWGQGTTVTVSS
VL: DIVMTQSPDSLAVSLGERATINCRASKSVSTSGYSFMHWYQQKPGQPPKLLIYLASNLESGVPDRFSGSGSGTDFTLTISSLQAEDVAVYYCQHSREVPWTFGQGTKVEIK
modifications: Synthetic h1F6 VH amino acid sequence; Synthetic h1F6 VL amino acid sequence

What was measured:
[1] = target: T1, CD70 ECD; experiment: Biacore affinity measurement on immobilized CD70 ECD; type: binding; details: 25° C., CD70 immobilized
Experimental: The immobilization of antigen CD70 ECD was performed at 25° C. with HBS-EP as the running buffer. Sensor chip surface of flow cells 1, 4 were activated by freshly mixed 50 mmol/L N-Hydroxy succinimide (NHS) and 200 mmol/L 1-ethyl-3-(3-dimethylaminopropyl) carbodiimide hydrochloride (EDC) for 420s (10 μL/min). Afterwards, CD70 antigen diluted in 10 mmol/L NaAC (pH 4.5) was injected into flow cell 4 to achieve conjugation of the appropriate Response Unit, while flow cell 1 was set as a blank. After the amine coupling reaction, the remaining active coupling sites on chip surface were blocked by 420s injection of 1 mol/L ethanolamine hydrochloride.
The assay was performed at 25° C. and the running buffer was HBS-EP. Diluted antibodies were injected over the surface of flow cells 1 and 4 during the association phase, followed by injecting running buffer as the dissociation phase. All the data were processed using Biacore T200 Evaluation software version 3.1. Flow cell 1 and a blank injection of buffer in each cycle were used as a double reference for Response Units subtraction. Kinetic data of the interaction between the antibodies and CD70 antigen were obtained through affinity measurement.

[2] = tested on: 786-O, Caki-1, U251 and DBTRG-05MG cells; experiment: Antibody binding by flow cytometry, statements across all four tumor cell lines; set-up: species or system human; details: range over the four cell lines
Experimental: The lead antibodies were tested for binding to renal carcinoma cells and glioblastoma cells expressing CD70 on the cell surface by flow cytometry. Cell lines 786-O (ATCC® CRL-1932™, provided by COBIOER), Caki-1 (ATCC® HTB-46™, provided by COBIOER), U251 and DBTRG-05MG (ATCC® CRL-2020™, provided by COBIOER) were each tested for antibody binding. 786-O cells were cultured with RPMI 1640 medium (Gibco, Cat #11875093) containing of 10% FBS (Gibco, Cat #10099141) while Caki-1 cells were cultured with McCoy's 5a Modified medium (Gibco, Cat #16600082) containing 10% FBS. U251 cells were cultured with MEM medium containing of 10% FBS and 1% NEAA+1 mM sodium pyruvate. DBTRG-05MG cells were cultured with DMEM medium (Gibco, Cat #C11995500BT) containing of 10% FBS. Each of the lead antibodies and the controls were incubated for 30 mins with the different cell lines (3×10^5 cells per well) in 0.2 ml FACS buffer (1×PBS with 0.1% BSA) at 4° C. Then, the cells were pelleted, washed, and incubated at 4° C. for 30 mins with 100 μl of 1:200 diluted PE-conjugated anti human Fc (Abcam, Ab98596) in FACS buffer. The cells were pelleted again, washed with PBS, resuspended in FACS buffer and analyzed by flow cytometer (Beckman, CytoFLEX).

[3] = Hydrophobic interaction chromatography (HIC); type: physicochemical; details: full IgG; for Retention time: hydrophobicity by HIC
Experimental: Antibodies were purified from cleared cell culture supernatants using Protein A chromatography (Protein A resin slurry, 4.5 mL, Bogen, Cat #18-0010-02). Briefly, supernatants were prepared for affinity chromatography and loaded onto the columns and allowed to flow completely through the resin. The columns were washed with binding buffer containing 0.15M NaCl and 0.2M PB, PH7.0. Antibody was eluted with elution buffer containing 0.15M NaCl, 0.1M Glycine and 0.2M PB, PH 3.0. Fractions were collected and neutralized by the addition of 1/10 volume of 1M Tris, PH9.0. The fractions were dialyzed for 2 hours against 1×PBS. Purified antibody was quantified by absorbance at A280. Samples from each step of the protein A chromatography were applied onto 12% SDS-PAGE gels for reduced and non-reduced electrophoresis. The hydrophobicity was assessed with hydrophobic interaction chromatography (HIC) on a TSK gel Butyl-NPR, 4.6×100 mm with Butyl-NPR (Tosoh corporation) using a Waters HPLC 2695 system.

[4] = target: T2, mouse CD70 extra-cellular domain (ECD); experiment: Biolayer interferometry (BLI), mouse CD70; type: binding
Experimental: (§1) Recombinant proteins consisting of human, rat, or mouse CD70 extra-cellular domain (ECD) linked to His tag was purchased (from ACRO systems). 69A7 and 2E7 (20 nM) were immobilized on anti-human IgG Fc biosensor tips (ForteBio). Binding assays using one concentration (100 nM) of recombinant protein in solution were performed using Octet RED (ForteBio). Association time was set at 180s and dissociation time was set at 300s. Binding affinity was calculated using ForteBio Data Acquisition 6.3 software. Affinity was derived by fitting the kinetic data to a 1:1 Langmuir binding model utilizing global fitting algorithms. […] Binding assays for 2E7 using multiple dilutions (from 200 nM down to 3.13 nM) of species' recombinant CD70 ECD proteins in solution were also performed using the same method.

[5] = target: T3, rat CD70 extra-cellular domain (ECD); experiment: Biolayer interferometry (BLI), rat CD70; type: binding
Experimental: as §1

[6] = target: T4, human CD70 extra-cellular domain (ECD); experiment: Biolayer interferometry (BLI), human CD70; type: binding
Experimental: as §1

[7] = one concentration (100 nM), Table 9
[8] = Hu CD70 100 nM, one concentration

Molecule | Rmax (RU) [1] [RU] | ka [1] [M⁻¹ s⁻¹] | kd [1] [s⁻¹] | EC50 relative to that of antibody 69A7 [2] | hydrophobicity compared with the parent antibody 69A7 ([3]; HIC) | Retention time [3] [min] | Response ([4]; MS CD70 100 nM, one concentration, *Response below range of quantification) | ka ([4]; MS CD70 100 nM, one concentration, response below range of quantification) [M⁻¹ s⁻¹] | cross-reactivity to mouse CD70 [4, 7] | Response ([5]; Rat CD70 100 nM, one concentration, *Response below range of quantification) | ka ([5]; Rat CD70 100 nM, one concentration, response below range of quantification) [M⁻¹ s⁻¹] | cross-reactivity to rat CD70 [5, 7] | Response [6, 8] | ka [6, 8] [M⁻¹ s⁻¹] | Kd ([6]; human CD70, one concentration (100 nM), read-out: equilibrium dissociation constant (KD)) [nM]
B1 | 45.47 | 51000 | 0.00197 | 1.7-2.2 times | slightly more hydrophobic than the parent antibody 69A7 | 9.56 |  |  |  |  |  |  |  |  | 
B2 | 38.01 | 6330 | 0.00198 |  |  | 8.83 | *0.0113 | 1494 | no cross-reactivity | *0.0198 | 94250 | no cross-reactivity | 0.3334 | 338700 | 2.9
B3 |  |  |  |  |  | 9.06 |  |  |  |  |  |  |  |  | 
B4 | 19.27 | 45100 | 0.00236 |  |  |  |  |  |  |  |  |  |  |  | 
